Results taken from article PMC8509397.

Biological target: T1, IFNγ cellular receptor (IFNGR1 and IFNGR2) on WISH cells (human (endogenous in WISH cells)) (UniProt P15260)
T1 sequence 1: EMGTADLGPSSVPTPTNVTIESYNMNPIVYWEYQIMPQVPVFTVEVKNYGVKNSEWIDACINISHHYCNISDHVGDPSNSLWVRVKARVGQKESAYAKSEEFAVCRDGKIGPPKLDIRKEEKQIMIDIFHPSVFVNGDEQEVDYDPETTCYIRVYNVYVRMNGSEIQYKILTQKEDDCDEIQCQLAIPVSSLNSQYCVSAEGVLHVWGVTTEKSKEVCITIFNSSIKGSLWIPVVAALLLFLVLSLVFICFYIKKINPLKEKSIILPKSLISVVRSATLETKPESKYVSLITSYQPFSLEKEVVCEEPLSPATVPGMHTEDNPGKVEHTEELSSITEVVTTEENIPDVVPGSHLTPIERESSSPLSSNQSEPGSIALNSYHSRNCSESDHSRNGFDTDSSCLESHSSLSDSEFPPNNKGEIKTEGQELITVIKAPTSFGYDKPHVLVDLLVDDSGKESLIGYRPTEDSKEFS
T1 sequence 2: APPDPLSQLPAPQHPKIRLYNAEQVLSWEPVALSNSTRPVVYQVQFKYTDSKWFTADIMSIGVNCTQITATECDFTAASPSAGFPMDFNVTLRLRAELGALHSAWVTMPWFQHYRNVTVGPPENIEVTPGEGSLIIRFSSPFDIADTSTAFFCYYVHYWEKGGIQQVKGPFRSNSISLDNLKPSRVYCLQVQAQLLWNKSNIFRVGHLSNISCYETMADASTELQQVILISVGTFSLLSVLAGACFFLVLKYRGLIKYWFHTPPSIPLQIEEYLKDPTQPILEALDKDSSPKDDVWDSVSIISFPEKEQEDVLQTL

antiproliferative activity of IFNγ (IDO induction, modified kynurenine bioassay) on WISH cells, 100 IU/mL IFNγ with LMWH (Fraxiparine): LMWH concentration that reduces the activity to 50% of control: 35 IU/mL | inhibition of IDO induction by 100 IU/mL IFNγ on WISH cells with LMWH (Fraxiparine) 1.5 to 150 anti-Xa IU/mL; highest value at 150 IU/mL: < 80%
Substance: recombinant interferon-gamma (IFNγ) (from UniProt P01579 24-161) (ligand)
